For five molecules, Kd, koff and kon results are on record in patent US20230190875A1 (ACCELERON PHARMA, published 2023).

B1: ActRIIB homodimer Fc fusion (Fc fusion, UniProt Q13705 20-134, looked up)
chain: GRGEAETRECIYYNANWELERTNQSGLERCEGEQDKRLHCYASWRNSSGTIELVKKGCWLDDFNCYDRQECVATEENPQVYFCCCEGNFCNERFTHLPEAGGPEVTYEPPPTAPT
notes: Comparator; also called homodimeric ActRIIB Fc fusion; homomeric ActRIIB-Fc; not shown: linker and Fc domain of the homodimer are not described

What all share (experiment): SPR (Biacore); Fc fusion captured by anti-Fc antibody, ligand injected
A general note: SPR reads the build-up and loss of mass on a sensor chip optically.

Assay [1] addresses T1, activin A (UniProt P08476 311-426).
T1 sequence (looked up): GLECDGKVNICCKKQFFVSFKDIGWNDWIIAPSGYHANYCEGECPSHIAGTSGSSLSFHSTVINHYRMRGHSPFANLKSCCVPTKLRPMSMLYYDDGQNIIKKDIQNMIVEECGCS
Here is the method: (§1) A Biacore™-based binding assay was used to compare ligand binding selectivity of the single-arm ActRIIB heterodimer Fc fusion described above with that of ActRIIB homodimer Fc fusion. Single-arm ActRIIB […] Fc fusion and ActRIIB homodimer Fc fusion were independently captured onto the system using an anti-Fc antibody. Ligands were injected and allowed to flow over the captured receptor protein.

Assay [2] addresses T2, activin B (UniProt P09529 293-407).
T2 sequence (looked up): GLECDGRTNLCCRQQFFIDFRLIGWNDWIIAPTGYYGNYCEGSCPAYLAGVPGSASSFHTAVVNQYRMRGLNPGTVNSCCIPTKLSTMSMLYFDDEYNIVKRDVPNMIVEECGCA
The method, then: as §1

Assay [3] has as its target T3, BMP6 (UniProt P22004 382-513, limits assumed).
T3 sequence (looked up): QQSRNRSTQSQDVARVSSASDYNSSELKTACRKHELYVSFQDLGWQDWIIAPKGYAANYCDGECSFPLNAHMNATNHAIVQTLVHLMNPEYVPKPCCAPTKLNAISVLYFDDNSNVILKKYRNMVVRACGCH
Here is the method:
as §1

Assay [4] has as its target B1. Here is the method:
as §1

For assay [5], the target named is T4, ActRIIA homodimer Fc fusion (UniProt P27037 21-135).
T4 construct: Comparator; also called homodimeric ActRIIA Fc fusion; not shown: linker and Fc domain of the homodimer are not described
Here is the method:
A Biacore™-based binding assay was used to compare ligand binding selectivity of the single-arm ActRIIA heterodimer Fc fusions described above with that of an ActRIIA homodimer Fc fusion. The single-arm ActRIIA heterodimer Fc fusions and ActRIIA homodimer Fc fusions were independently captured onto the system using an anti-Fc antibody. Ligands were injected and allowed to flow over the captured receptor protein.

T4 sequence (P27037 21-135): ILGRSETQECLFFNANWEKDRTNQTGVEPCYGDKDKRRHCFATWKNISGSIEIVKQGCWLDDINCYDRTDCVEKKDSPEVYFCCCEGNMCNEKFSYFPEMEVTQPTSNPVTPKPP

As to B1, in assay [1], the affinity, expressed as Kd, was 0.019 nM; the koff (as a rule, the rate constant with which the complex falls apart) was found to be 0.00023 s⁻¹; the kon (as a rule, a measure of how fast the partners come together) turned out to be 1.2e+07 M⁻¹ s⁻¹. In assay [2], binding was characterised by a dissociation constant (Kd) of 0.02 nM, the off-rate constant (koff) was determined as 0.0001 s⁻¹ and the kon came to 5.1e+06 M⁻¹ s⁻¹. In addition, in assay [3], binding was characterised by a dissociation constant (Kd) of 0.21 nM, the koff is 0.0068 s⁻¹ and the kon amounted to 3.2e+07 M⁻¹ s⁻¹.

B2: GDF11 (ligand, UniProt O95390 299-407, looked up)
chain: NLGLDCDEHSSESRCCRYPLTVDFEAFGWDWIIAPKRYKANYCSGQCEYMFMQKYPHTHLVQQANPRGSAGPCCTPTKMSPINMLYFNDKQQIIYGKIPGMVVDRCGCS
notes: also called BMP11
On to B2, for which, in assay [4], the equilibrium dissociation constant (Kd) – broadly, the concentration at which binding is half-saturated – stood at 0.002 nM; the koff came out at 0.00011 s⁻¹; the on-rate constant (kon) is 5e+07 M⁻¹ s⁻¹. In assay [5], the Kd was 0.028 nM, the koff was 0.00072 s⁻¹ and the kon is 2.6e+07 M⁻¹ s⁻¹.

B3: BMP10 (ligand, UniProt O95393 317-424, looked up)
chain: NAKGNYCKRTPLYIDFKEIGWDSWIIAPPGYEAYECRGVCNYPLAEHLTPTKHAIIQALVHLKNSQKASKACCVPTKLEPISILYLDKGVVTYKFKYEGMAVSECGCR
In assay [4], B3 had a Kd of 0.011 nM, a koff of 0.00026 s⁻¹ and a kon of 2.3e+07 M⁻¹ s⁻¹. In assay [5], the Kd came to 0.086 nM and the kon amounted to 2.9e+07 M⁻¹ s⁻¹.

B4: BMP9 (ligand, UniProt Q9UK05 320-429, looked up)
chain: SAGAGSHCQKTSLRVNFEDIGWDSWIIAPKEYEAYECKGGCFFPLADDVTPTKHAIVQTLVHLKFPTKVGKACCVPTKLSPISVLYKDDMGVPTLKYHYEGMSVAECGCR
notes: also called GDF2
For B4, in assay [4], the Kd is 0.078 nM, the koff came out at 0.0011 s⁻¹ and the kon was found to be 1.4e+07 M⁻¹ s⁻¹.

B5: GDF3 (ligand, UniProt Q9NR23 251-364, looked up)
chain: AAIPVPKLSCKNLCHRHQLFINFRDLGWHKWIIAPKGFMANYCHGECPFSLTISLNSSNYAFMQALMHAVDPEIPQAVCIPTKLSPISMLYQDNNDNVILRHYEDMVVDECGCG
notes: also called VGR2
Regarding B5, in assay [4], binding was characterised by a dissociation constant (Kd) of 1.5 nM, the koff stood at 0.0022 s⁻¹ and the kon was determined as 1.4e+06 M⁻¹ s⁻¹.
